Results: publication doi:10.1101/2020.03.29.013490

Key:
[1] = molecular target: recombinant human angiotensin-converting enzyme-2 (ACE2) (human) (UniProt Q9BYF1); assay: BLI
[2] = molecular target: 2019-nCoV spike 1 protein (S1) (2019-nCoV (SARS-CoV-2)); assay: BLI

recombinant human angiotensin-converting enzyme-2 (ACE2) (human), sequence (Q9BYF1 18-740): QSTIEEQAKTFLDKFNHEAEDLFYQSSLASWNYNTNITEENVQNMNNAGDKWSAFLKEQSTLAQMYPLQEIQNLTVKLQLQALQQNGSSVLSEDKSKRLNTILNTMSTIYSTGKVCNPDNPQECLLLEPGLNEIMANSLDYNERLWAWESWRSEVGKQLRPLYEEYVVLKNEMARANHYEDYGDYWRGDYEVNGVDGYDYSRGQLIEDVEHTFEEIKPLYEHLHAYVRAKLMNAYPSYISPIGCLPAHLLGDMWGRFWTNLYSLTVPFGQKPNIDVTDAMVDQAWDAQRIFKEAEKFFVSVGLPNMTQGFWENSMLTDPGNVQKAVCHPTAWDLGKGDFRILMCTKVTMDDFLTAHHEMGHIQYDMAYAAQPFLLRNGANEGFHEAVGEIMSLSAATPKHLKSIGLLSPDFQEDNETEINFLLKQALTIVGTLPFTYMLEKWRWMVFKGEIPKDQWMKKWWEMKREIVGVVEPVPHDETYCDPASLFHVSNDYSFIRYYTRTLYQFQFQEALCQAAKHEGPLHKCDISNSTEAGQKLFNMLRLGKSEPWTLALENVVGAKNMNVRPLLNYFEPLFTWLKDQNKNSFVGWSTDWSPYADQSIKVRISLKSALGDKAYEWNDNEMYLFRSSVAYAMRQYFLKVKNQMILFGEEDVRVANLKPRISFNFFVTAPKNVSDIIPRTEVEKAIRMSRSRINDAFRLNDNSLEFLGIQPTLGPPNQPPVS
human defensin 5 (HD5), sequence (Q01523 63-94): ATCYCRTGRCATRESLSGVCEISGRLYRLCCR

Row | Substance | Kd [1] [nM] | Kd [2] [nM]
1 | 2019-nCoV spike 1 protein (S1) (domain or fragment) | 2.68 | 
2 | human defensin 5 (HD5) (from UniProt Q01523 63-94) (peptide) | 39.3 | 82.8
